Laboratory results: the DeepSol protein solubility set

Test: soluble on expression in E. coli; label from the status in PepcDB or PDB records

Soluble on expression in E. coli, soluble:
TGCSVTATRAEEWSDGFNVTYSVSGSSAWTVNLALNGSQTIQASWNANVTGSGSTRTVTPNGSGNTFGVTVMKNGSSTTPAATCAGS, MAHHHHHHMITSINVIHELLTTIYCRIFSRKRKDIYKYDVLLYLQDYYYFDVIKRVSDDIKELDDDSITIEINSNEYEVILNGDKSSSFFNHTFENFCIHRGYDIIKDKTYSNEYEKRIDFLHELLCDLLCLLLNENNEKKGKEKEKEEKKNNMNKNMNYNKERVINKMYHNNNHLFKKFWENIQDILKEINILNENKYVEDINEENIKDILYIQKEKLIKNEDIIIKKNVDINKITLLNNLIEKYNNEYKYRFYYIFLNNYLTIQTMFTSNMIYLYSYEIQNIIHKIIKMKINLYQPLTIYDVLAFQYDQIMFHKSSYMNLISPVKKIKILNNIVERGGDPDEFSKKVIIKDVINANISLKAKFNKARTQNDNNWGNNKYKVRNYYDNNRR, MAKIVILFDFDRTLIDGDSDNWVVTEMGLTEIFHQLRFTLPWNRLMDRMMMELQSQGRSIDDIKSCLKKMPIDSHIIEAIKSAKSSGCDLKIVSDANQFFIEKILEHHDLVDCFSEIYTNPTSLDDNGNLRILPYHSDALPPHSCNLCPSNLCKGLVMDHLRASSSNDQIPRRFIYLGDGGGDFCPTLKLRECDFVMPRTNYPLWKKISDNPLLIKAEVKEWSSAEEQQRILLQLVSTITKEEDS, MSEVTRSLLQRWGASLRRGADFDSWGQLVEAIDEYQILARHLQKEAQAQHNNSEFTEEQKKTIGKIATCLELRSAALQSTQSQEEFKLEDLKKLEPILKNILTYNKEFPFDVQPI, AIASPQDTCCPPDSWPALKVDYKPKGKLEDIGKGLKAYVVGNGPRAVIALNDVFGIESGHSKEICDAIADKGFTVVFPDVFRGKPLQVSDMSKLFDELPGWAKQFDYEPALRKDVVEVILPYLHDKLGFKSNDQIALAGFCWGAFMLFHLAGDTKLPGGPFACGVSFHPSVQIEGVFQRDPLQLIDRATCPQLLLPSAGEPDYMKEEGDAIKKLRAKPFGASCGVKTFPSMQHGWVNRGDRNDPQVVKEAQEALQLAVDFMMRHTKPKA, MKIFKFTPENNLFYGYILEDMKTGFNILREIMVEGYRPSIARLYDAEDGTQHFTHFADGKCVLIFMAEGNPRIAKVTGEGIAEIVARYPQCQRVDSKLIETWFNNLNWGPDKVAAERVQILKTGNMGFTTEVSGCWSCIHEIYESVINRIRTEFPHADDITMLGGHSSHSYQNGTNMYFVYDYNVVDCKPEEEIDKYHNPLNKIICEETIRLGGSMVHHHGIGKHRVHWSKLEHGSAWALLEGLKKQFDPNGIMNTGTIYPIEK

Soluble on expression in E. coli, not soluble:
MGHHHHHHSHMSIRNWVTRTPSSSPPITPPASETKIMSPRKALTPVSQKSSQAEACSESRNRVKRRLDSSCLESVKQKCVKSCNCVTELDGQVENLHLDLCCLAGNQEDLSKDSLGPTKSSKIEGAGTSISEPPSPISPYASESCGTLPLPLRPCGEGSEMVGKENSSPENKNWLLAMAAKRKAENPSPRSPSSQTPNSRRQSGKTLPSPVTITPSSMRKICTYFHRKSQEDFCGPEHSTEL, MDKQSLHETAKRLALELPFVELCWPFGPEFDVFKIGGKIFMLSSELRGVPFINLKSDPQKSLLNQQIYPSIKPGYHMNKKHWISVYSGEEISEALLRDLINDSWNLVVDGLAKRDQKRVRPG, MLRLQMTDGHISCTAVEFSYMSKISLNTPPGTKVKLSGIVDIKNGFLLLNDSNTTVLGGEVEHLIEKWELQRSLSKHNRSNIGTEGGPPPFVPFGQCVSRVQVDSRELDRRKTLQVTMPVKPTNDNDEFEKQRTAAIAEVAKSKETKTFGGGGGGARSNLNMNAAGNRNREVLQKEKSTKSEGKHEGVYRELVDEKALKHITEMGFSKEASRQALMDNGNNLEAALNVLLTSNKQKPVMGPPLRGRGKGRGRIRSEDEEDLGNARPSAPSTLFDFLESKMGTLNVEEPKSQPQQLHQGQYRSSNTEQNGVKDNNHLRHPPRNDTRQPRNEKPPRFQRDSQNSKSVLEGSGLPRNRGSERPSTSSVSEVWAEDRIKCDRPYSRYDRTKDTSYPLGSQHSDGAFKKRDNSMQSRSGKGPSFAEAKENPLPQGSVDYNNQKRGKRESQTSIPDYFYDRKSQTINNEAFSGIKIEKHFNVNTDYQNPVRSNSFIGVPNGEVEMPLKGRRIGHIKPAGPVTAVPCDDKIFYNSGPKRRSGPIKPEKILESSIPMEYAKMWKPGDECFALYWEDNKFYRAEVEALHSSGMTAVVKFIDYGNYEEVLLSNIKPIQTEAWEEEGTYDQTLEFRRGGDGQPRRSTRPTQQFYQPPRARN, MLFWLMASLWPMKAGVVYADQTEGAITFVSDEKIEGWATAPGIGNGQGNSIRYFMIRIQPKEQSGTAVSYRAEAVEAPADRNGEKKYTFSLDMRGKWPSAPGTMVTYQITVDAYRVLGNGKEDVYFSFPQTPYQYTRQTEASTAKLDFSLSFSQPEYAKPPNGDAQGRLDVTLVPQGAVSGIIRPPIDVVFVMDVSGSMTAMKLQSAKSALQAAVNYFKSNYNQNDRFALIPFSDGVREASVVPFGKYSNVASQLDAILNTGNSLTAGGGTNYSAALSLAKSYFTDPTRKKYIIFLTDGMPTVLNAVDTITYREVKQNFWGGYSYTGNRVTDSLSITYELYSDGRTAGIRFTDNKGYSRRFYSDGQDYVNGWRVSWDNGYSFTYSSIEGKIRADATAVAKTLGMNNITLYSIGFGDNDEVDMDYLRSLSATAGGEARQGTTQNLTALFQQFSQLATTPAITGTIRIPLSSFGGNVAVAENGQVWLDENKQNAYISFSIPYQVGQGTPAPVTIPIPVSFKAKGTYTFTAELTYRDVYGQLQPAVTKTVTVTVKDEAPPSFTGTVKLQGLTNDVTGLIKRGATDGDDNRFRATYSLSLVGYVGNATGTISNVSIVQELPDGISVVPDGKVTTYVENGKRYAKWSFTNQMFDYSQLNKLTLSAQWVMQADFAMNSVQLPPASVTFTDSRYGAKTSTLVPPAERIGMTVRLDDFPNFYYEGNGKGTITKHKFSALSDDIVGQANPNSYGLLPLPVKALEYDPNDDGVLLVTYSNGQTGIGVH, MFDRYESGERAVLVHINFTQEGEWEDLAEFEMLVSSAGVETLQVVTGSRQSPHPKYYVGEGKAQEIATTVHLTGAEIVIFNHSLSPAQERNLEALCKCRVLDRTGLILDIFAQRARTHEGKLQVELAQLRHISTRLIRGWTHLERQKGGIGLRGPGETQLETDRRLLRERIKAILRRLEKVAKQREQGRRARNRAEIPTISLVGYTNAGKSTLFNRITEAGVYAADQLFATLDPTLRKMELADVGPAILADTVGFIRHLPHDLVAAFKATLQETQEADILLHVVDASDERFRENIQAVHEVLEEIDAHEVPTLVVMNKIDNLESQTPRIERDEEGVPRAVWVSAMEGLGIELLFDALTERLASQMVEHQLRIPPQYQGRFRSTFFQMKCIQREEYDQDGNLLIDIRMQQVDWSRLEKREGAVLTDFIVTLEHHHHHH, MDADSSNSTVTPGRLPDGLSSCPCFYLGKKLMNLSANAQATLLLTSDFSRAAASKYKPLSNSEWGKFALWLKHQRISPAELLVPQPQEKLTGWSDPRISQERILGLLARGHSLALAVDKWQRAGLWILTRGDADYPVRLKNRLRTDAPPVLFGCGNKALLQAEGMAIVGSRDAPTDDLRYTQQLAAKLAQQGICVISGGARGIDECAMASALEAGGTAVGVLADSLLKTSTLVKWREGLIAGNLVLISPFYPEVRFTVGNAMARNKYIYCLAESAMVVRAGMTGGTITGAMEALKHQWLPVQVKPNQDMQSANSRLVENGASWSAEQAENVTIRLPDVPGLMYDRALRNAQPELFSLHEDDANYAVMPAYTPVDFYQLFVAELAILAKESISIERLASCTGLTIEQISVWLNRAEEEGRVIRLGEGHYQFR, MGSDKIHHHHHHMIGICCLFIVTSCQNREPQGASIQGKDFAQSTEKSVIMVMIDSMTADLLDAAKEEGIIPGLSFLMENGTYFDELIAPFPSMSVVIESTLITGSLPDEHKVPGLVWYHAEEDRLVDYGSTPETYMKLGLNRVLFDDLSNLNNRHLSKDVPTIHEILQDSQMSTGSVNALVYRGNTSHKVNLPEPFDTWMQGQPFETKGPDLLSFGTIIEPKVIQAKELDDDHFLDLYGLNDSYGTAVVRTLIEKNEQPQFLFLFMPDFDQATHDHGQLNLEDFEKVDHAFQDILNSYDSWEQALEENIFIVIGDHGQSQIASTASDAIIPLPTLYEEYEIASLMDAPSDGEIVIANNHRMVYVYSFQPAHSFDTLANEALEDLRIQFAAYLEDDELVIKAPEHKEPLKVKKGGSWIDPYGQTWTIEGNEQIGDVFFDHDCKRIMYGENPDLFNQLFHALDSHTSTLVLTAKPGYIFESEGAPAHIGGGEHGGIHEEDTKAAMIIAGTDKAPAHLRMVDLKDFIIRLMTEEN, MLRIDCGGQDTVTKIVAERLMMKTDGRLARMLHVLVHMGLLGGRETSERIAQMLNTNPVVVRRTLGALRESGIVVSEGGRGGGWKLIRSLDQITVLDVQRALVEGQMLPAPLSKDHPNCPVERASNAVLERAHCLAEAALRTAYSETTLAQIAETAVATK, MKVPPKKKFLGNSEHPGDLLTQTSKCECQLASVYGNGRVPVKNKKATNAYFQQSIPSWSDTLRMTRQNKKQRGRRRWKKNRKKRRVKTG, MDFDRIAMRTTDPAWQKGSAPATPSPVEADAKVTMRLRYTKTGAMRYLSHLEMIGLFTRAVGRARLPIRFSQGFHPHPKFSFATALSVGVESWAEYLDMELIPSLTPGEVRDRLNAALPEGMRIVEAVVIPPGTPSLSVLMDKVRYRIILLEEAARDLAARAEAFLARDSFPLRRAKKGRIQEYDLEHHHHHH, MSIKLFSLAKELNVGVGSLAGFLRKKGFDVEDNNPNVRIENEEFDLLLTEFGKSLPKGEAERIRKKFVKQKQGTPASAPSAKEETAGMAAKEAQVIATEVPQDMRPRFTIKGKVETEKPAEPVPSPKDKEPDTVREDKPARETAPVKEETKVVPVKEDKPKEEKPKQEEPKREEPKPEEPVQAAPVAKPVEKPVDKPQQPVMTQKPQEAETPPPAQEMEKKEDTEEVFRLKTNTQEPQVKVVGKIDLSSINSSTRPKKKTKEDRQREQNDADGKKKRKRINKAAVDVKKEAAKVSGEQGKRNAGGGNHSSGNKNNNRPAQQQSNASGGRKNNKRQSLPPKVEISDEDVQRQVKETLARLTTKKTSTTLGRGAKYRKDKRDAASRAAQDAMELNSEEQHTLKLTEFVTVSDLSNMMDVPVNEVIATCMSIGMMVGINQRLDAETINIVAEEFGFKTEFVSADLVEAIAPEEDNEEDLVA, MGHHHHHHSHMKRDELMELIFLGTSAGVPTRTRNVTAILLNLQHPTQSGLWLFDCGEGTQHQLLHTAFNPGKLDKIFISHLHGDHLFGLPGLLCSRSMSGIIQPLTIYGPQGIREFVETALRISGSWTDYPLEIVEIGAGEILDDGLRKVTAYPLEHPLECYGYRIEEHDKPGALNAQALKAAGVPPGPLFQELKAGKTITLEDGRQINGADYLAAPVPGKALAIFGDTGPCDAALDLAKGVDVMVHEATLDITMEAKANSRGHSSTRQAATLAREAGVGKLIITHVSSRYDDKGCQHLLRECRSIFPATELANDFTVFNV, KEMRQQVPATIKGPTEEYEYYMELMALLNNLLETARSRGFKFLDSHIEAPEQSSIFLMYPLVSEDHRLISFITDNLRLMAMGQMSPHELEGLLEQEIEAIQNELLLPSRSLQRTAE, MKGIIFTEFMELVESKFGLEVLDQVLELSDDEGVYTSVGSYDHRDLVKLIVNLSKVSDIPPEQLQEVFGESVFLNLLRSIPSHASLQQCDNTFQFVRHVESFIHVEVKKLYPDANPPKFDFISETQSELVFDYHSARCMAHVCLGLLKGCAAHFGQVIHIMHQNQTEDGSQVRFWLEAQLEHHHHHH
